Experimental data published in IntAct's records for PubMed 17339482.

B1: Complement factor H (Homo sapiens), P08603 (parent)
chain: MRLLAKIICLMLWAICVAEDCNELPPRRNTEILTGSWSDQTYPEGTQAIYKCRPGYRSLGNVIMVCRKGEWVALNPLRKCQKRPCGHPGDTPFGTFTLTGGNVFEYGVKAVYTCNEGYQLLGEINYRECDTDGWTNDIPICEVVKCLPVTAPENGKIVSSAMEPDREYHFGQAVRFVCNSGYKIEGDEEMHCSDDGFWSKEKPKCVEISCKSPDVINGSPISQKIIYKENERFQYKCNMGYEYSERGDAVCTESGWRPLPSCEEKSCDNPYIPNGDYSPLRIKHRTGDEITYQCRNGFYPATRGNTAKCTSTGWIPAPRCTLKPCDYPDIKHGGLYHENMRRPYFPVAVGKYYSYYCDEHFETPSGSYWDHIHCTQDGWSPAVPCLRKCYFPYLENGYNQNYGRKFVQGKSIDVACHPGYALPKAQTTVTCMENGWSPTPRCIRVKTCSKSSIDIENGFISESQYTYALKEKAKYQCKLGYVTADGETSGSITCGKDGWSAQPTCIKSCDIPVFMNARTKNDFTWFKLNDTLDYECHDGYESNTGSTTGSIVCGYNGWSDLPICYERECELPKIDVHLVPDRKKDQYKVGEVLKFSCKPGFTIVGPNSVQCYHFGLSPDLPICKEQVQSCGPPPELLNGNVKEKTKEEYGHSEVVEYYCNPRFLMKGPNKIQCVDGEWTTLPVCIVEESTCGDIPELEHGWAQLSSPPYYYGDSVEFNCSESFTMIGHRSITCIHGVWTQLPQCVAIDKLKKCKSSNLIILEEHLKNKKEFDHNSNIRYRCRGKEGWIHTVCINGRWDPEVNCSMAQIQLCPPPPQIPNSHNMTTTLNYRDGEKVSVLCQENYLIQEGEEITCKDGRWQSIPLCVEKIPCSQPPQIEHGTINSSRSSQESYAHGTKLSYTCEGGFRISEENETTCYMGKWSSPPQCEGLPCKSPPEISHGVVAHMSDSYQYGEEVTYKCFEGFGIDGPAIAKCLGEKWSHPPSCIKTDCLSLPSFENAIPMGEKKDVYKAGEQVTYTCATYYKMDGASNVTCINSRWTGRPTCRDTSCVNPPTVQNAYIVSRQMSKYPSGERVRYQCRSPYEMFGDEEVMCLNGNWTEPPQCKDSTGKCGPPPPIDNGDITSFPLSVYAPASSVEYQCQNLYQLEGNKRITCRNGQWSEPPKCLHPCVISREIMENYNIALRWTAKQKLYSRTGESVEFVCKRGYRLSSRSHTLRTTCWDGKLEYPTCAKR
partner: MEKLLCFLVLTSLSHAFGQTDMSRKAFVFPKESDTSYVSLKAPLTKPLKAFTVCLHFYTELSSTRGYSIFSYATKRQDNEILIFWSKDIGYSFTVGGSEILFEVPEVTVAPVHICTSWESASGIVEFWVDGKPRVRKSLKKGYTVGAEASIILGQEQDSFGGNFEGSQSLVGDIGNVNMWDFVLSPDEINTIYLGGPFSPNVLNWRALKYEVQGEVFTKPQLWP

Variants of: B1
Settings: with crp_human CRP

effect of a mutation on the interaction	Variant
decreasing interaction strength	Y402H
